Results: paper PMC12416549 (2024)

Biological target: T1, TNFR1 (Homo sapiens, UniProt P19438)
T1 chain: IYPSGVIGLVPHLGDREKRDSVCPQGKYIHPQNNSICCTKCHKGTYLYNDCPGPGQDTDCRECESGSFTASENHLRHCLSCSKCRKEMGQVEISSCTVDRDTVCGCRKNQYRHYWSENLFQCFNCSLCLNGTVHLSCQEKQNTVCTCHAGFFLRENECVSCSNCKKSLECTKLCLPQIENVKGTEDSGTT
Test: yeast display SC50

B1: L24G (designed binder)
chain: MTLQELLREEALRRAEAEAFRYAGELLAEKFPEQKEYLLDLAEEIESQIRSLSGVDVEDVRKFLDKEWAWVKELLAEHPAELAEVEAARAARLAELRAEVEAKVAA
apparent Kd (screen): 1400 pM

B2: R89I (designed binder)
chain: MTLQELLREEALRRAEAEAFRYALELLAEKFPEQKEYLLDLAEEIESQIRSLSGVDVEDVRKFLDKEWAWVKELLAEHPAELAEVEAAIAARLAELRAEVEAKVAA
apparent Kd (screen): 653 pM

B3: A76N (designed binder)
chain: MTLQELLREEALRRAEAEAFRYALELLAEKFPEQKEYLLDLAEEIESQIRSLSGVDVEDVRKFLDKEWAWVKELLNEHPAELAEVEAARAARLAELRAEVEAKVAA
apparent Kd (screen): 490 pM

B4: A106F (designed binder)
chain: MTLQELLREEALRRAEAEAFRYALELLAEKFPEQKEYLLDLAEEIESQIRSLSGVDVEDVRKFLDKEWAWVKELLAEHPAELAEVEAARAARLAELRAEVEAKVAF
apparent Kd (screen): 718 pM

B5: R61W (designed binder)
chain: MTLQELLREEALRRAEAEAFRYALELLAEKFPEQKEYLLDLAEEIESQIRSLSGVDVEDVWKFLDKEWAWVKELLAEHPAELAEVEAARAARLAELRAEVEAKVAA
apparent Kd (screen): 3630 pM

B6: A69W (designed binder)
chain: MTLQELLREEALRRAEAEAFRYALELLAEKFPEQKEYLLDLAEEIESQIRSLSGVDVEDVRKFLDKEWWWVKELLAEHPAELAEVEAARAARLAELRAEVEAKVAA
apparent Kd (screen): 539 pM

B7: V85R (designed binder)
chain: MTLQELLREEALRRAEAEAFRYALELLAEKFPEQKEYLLDLAEEIESQIRSLSGVDVEDVRKFLDKEWAWVKELLAEHPAELAEREAARAARLAELRAEVEAKVAA
apparent Kd (screen): 13800 pM

B8: E16I (designed binder)
chain: MTLQELLREEALRRAIAEAFRYALELLAEKFPEQKEYLLDLAEEIESQIRSLSGVDVEDVRKFLDKEWAWVKELLAEHPAELAEVEAARAARLAELRAEVEAKVAA
apparent Kd (screen): 539 pM

B9: L6V (designed binder)
chain: MTLQEVLREEALRRAEAEAFRYALELLAEKFPEQKEYLLDLAEEIESQIRSLSGVDVEDVRKFLDKEWAWVKELLAEHPAELAEVEAARAARLAELRAEVEAKVAA
apparent Kd (screen): 2480 pM

B10: A106M (designed binder)
chain: MTLQELLREEALRRAEAEAFRYALELLAEKFPEQKEYLLDLAEEIESQIRSLSGVDVEDVRKFLDKEWAWVKELLAEHPAELAEVEAARAARLAELRAEVEAKVAM
apparent Kd (screen): 718 pM

B11: L12V (designed binder)
chain: MTLQELLREEAVRRAEAEAFRYALELLAEKFPEQKEYLLDLAEEIESQIRSLSGVDVEDVRKFLDKEWAWVKELLAEHPAELAEVEAARAARLAELRAEVEAKVAA
apparent Kd (screen): 539 pM

B12: E84V (designed binder)
chain: MTLQELLREEALRRAEAEAFRYALELLAEKFPEQKEYLLDLAEEIESQIRSLSGVDVEDVRKFLDKEWAWVKELLAEHPAELAVVEAARAARLAELRAEVEAKVAA
apparent Kd (screen): 490 pM

B13: V100Q (designed binder)
chain: MTLQELLREEALRRAEAEAFRYALELLAEKFPEQKEYLLDLAEEIESQIRSLSGVDVEDVRKFLDKEWAWVKELLAEHPAELAEVEAARAARLAELRAEQEAKVAA
apparent Kd (screen): 718 pM

B14: Y37A (designed binder)
chain: MTLQELLREEALRRAEAEAFRYALELLAEKFPEQKEALLDLAEEIESQIRSLSGVDVEDVRKFLDKEWAWVKELLAEHPAELAEVEAARAARLAELRAEVEAKVAA
apparent Kd (screen): 24400 pM

B15: V104I (designed binder)
chain: MTLQELLREEALRRAEAEAFRYALELLAEKFPEQKEYLLDLAEEIESQIRSLSGVDVEDVRKFLDKEWAWVKELLAEHPAELAEVEAARAARLAELRAEVEAKIAA
apparent Kd (screen): 718 pM

B16: L39H (designed binder)
chain: MTLQELLREEALRRAEAEAFRYALELLAEKFPEQKEYLHDLAEEIESQIRSLSGVDVEDVRKFLDKEWAWVKELLAEHPAELAEVEAARAARLAELRAEVEAKVAA
apparent Kd (screen): 2480 pM

B17: R50G (designed binder)
chain: MTLQELLREEALRRAEAEAFRYALELLAEKFPEQKEYLLDLAEEIESQIGSLSGVDVEDVRKFLDKEWAWVKELLAEHPAELAEVEAARAARLAELRAEVEAKVAA
apparent Kd (screen): 1050 pM

B18: R92F (designed binder)
chain: MTLQELLREEALRRAEAEAFRYALELLAEKFPEQKEYLLDLAEEIESQIRSLSGVDVEDVRKFLDKEWAWVKELLAEHPAELAEVEAARAAFLAELRAEVEAKVAA
apparent Kd (screen): 490 pM

B19: E67F (designed binder)
chain: MTLQELLREEALRRAEAEAFRYALELLAEKFPEQKEYLLDLAEEIESQIRSLSGVDVEDVRKFLDKFWAWVKELLAEHPAELAEVEAARAARLAELRAEVEAKVAA
apparent Kd (screen): 12500 pM

B20: E67M (designed binder)
chain: MTLQELLREEALRRAEAEAFRYALELLAEKFPEQKEYLLDLAEEIESQIRSLSGVDVEDVRKFLDKMWAWVKELLAEHPAELAEVEAARAARLAELRAEVEAKVAA
apparent Kd (screen): 1270 pM

B21: Y37I (designed binder)
chain: MTLQELLREEALRRAEAEAFRYALELLAEKFPEQKEILLDLAEEIESQIRSLSGVDVEDVRKFLDKEWAWVKELLAEHPAELAEVEAARAARLAELRAEVEAKVAA
apparent Kd (screen): 22200 pM

B22: S51C (designed binder)
chain: MTLQELLREEALRRAEAEAFRYALELLAEKFPEQKEYLLDLAEEIESQIRCLSGVDVEDVRKFLDKEWAWVKELLAEHPAELAEVEAARAARLAELRAEVEAKVAA
apparent Kd (screen): 1050 pM

B23: D65I (designed binder)
chain: MTLQELLREEALRRAEAEAFRYALELLAEKFPEQKEYLLDLAEEIESQIRSLSGVDVEDVRKFLIKEWAWVKELLAEHPAELAEVEAARAARLAELRAEVEAKVAA
apparent Kd (screen): 405 pM

B24: V60T (designed binder)
chain: MTLQELLREEALRRAEAEAFRYALELLAEKFPEQKEYLLDLAEEIESQIRSLSGVDVEDTRKFLDKEWAWVKELLAEHPAELAEVEAARAARLAELRAEVEAKVAA
apparent Kd (screen): 539 pM

B25: E58K (designed binder)
chain: MTLQELLREEALRRAEAEAFRYALELLAEKFPEQKEYLLDLAEEIESQIRSLSGVDVKDVRKFLDKEWAWVKELLAEHPAELAEVEAARAARLAELRAEVEAKVAA
apparent Kd (screen): 490 pM

B26: A83P (designed binder)
chain: MTLQELLREEALRRAEAEAFRYALELLAEKFPEQKEYLLDLAEEIESQIRSLSGVDVEDVRKFLDKEWAWVKELLAEHPAELPEVEAARAARLAELRAEVEAKVAA
apparent Kd (screen): 1270 pM
